1 sequence from patent US20030027781 can be followed below.

This series relates to RBC ghost membrane 105 kDa protein (unidentified; disulfide-linked dimer, ~210 kDa non-reduced) (Homo sapiens). Briefly: filter. Particulars: Scatchard on RBC ghosts, 1600 sites per cell; target assigned to 105 kDa protein by crosslinking.

As usually defined, the Kd is the equilibrium constant for the complex coming apart. Lower therefore signals a tighter complex. In turn, AACTCAGTGGTAGGTAACGGTT [c56t] showed a Kd of 4 nM.
